Experimental data as given in US20140087995A1 (published 2014).
Numbered stars: 1 amine (or outer) side, 2 acyl side, 3 side chain; on linkers, the order of the positions; unused ones are H or OH. Bridge positions count the residues as written; N and C are the ends. Side chains are listed from the residue outwards. Ends that are not written are not given here. * marks the point of attachment. C20 diacid = O=C(O)CCCCCCCCCCCCCCCCCCC(=O)*; γGlu = O=C(O)[C@H](CCC(=O)[*:2])N[*:1]

T1: human calcitonin receptor (human, UniProt P30988 25-474)
T1 sequence (looked up): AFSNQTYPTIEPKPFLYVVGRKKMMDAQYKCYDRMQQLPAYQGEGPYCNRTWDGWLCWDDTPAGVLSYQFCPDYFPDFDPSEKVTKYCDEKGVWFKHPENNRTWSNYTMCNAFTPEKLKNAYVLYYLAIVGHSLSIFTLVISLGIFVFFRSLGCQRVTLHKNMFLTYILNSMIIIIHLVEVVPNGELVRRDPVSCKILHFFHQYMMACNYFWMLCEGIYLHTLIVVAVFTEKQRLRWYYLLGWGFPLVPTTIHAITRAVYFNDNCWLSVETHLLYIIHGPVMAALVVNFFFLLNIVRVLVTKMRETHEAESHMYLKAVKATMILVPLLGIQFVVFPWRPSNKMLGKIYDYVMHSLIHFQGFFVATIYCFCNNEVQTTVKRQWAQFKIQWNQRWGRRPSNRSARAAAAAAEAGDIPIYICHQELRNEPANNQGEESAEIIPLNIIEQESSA

T2: human amylin 3(a) receptor (human calcitonin receptor co-expressed with RAMP-3) (human, UniProt P30988 25-474; O60896 24-148, limits assumed)
T2 sequence (looked up) 1: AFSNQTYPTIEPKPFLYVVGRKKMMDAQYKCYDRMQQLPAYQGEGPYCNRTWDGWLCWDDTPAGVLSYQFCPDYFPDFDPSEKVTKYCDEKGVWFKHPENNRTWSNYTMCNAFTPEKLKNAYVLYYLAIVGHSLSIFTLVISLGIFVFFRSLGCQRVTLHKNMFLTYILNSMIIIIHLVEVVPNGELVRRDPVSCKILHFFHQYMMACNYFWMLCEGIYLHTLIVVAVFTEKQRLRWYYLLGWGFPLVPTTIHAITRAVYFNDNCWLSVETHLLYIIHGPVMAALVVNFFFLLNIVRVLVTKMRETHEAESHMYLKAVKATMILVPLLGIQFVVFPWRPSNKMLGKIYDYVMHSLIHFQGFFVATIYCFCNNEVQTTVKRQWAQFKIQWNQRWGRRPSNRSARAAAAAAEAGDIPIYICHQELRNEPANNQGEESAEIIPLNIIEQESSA
T2 sequence (looked up) 2: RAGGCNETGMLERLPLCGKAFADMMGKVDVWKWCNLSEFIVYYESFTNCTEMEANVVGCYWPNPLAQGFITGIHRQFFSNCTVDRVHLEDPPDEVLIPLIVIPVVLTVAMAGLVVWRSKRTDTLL


Experiments:
[1] = target: T1, human calcitonin receptor; test: cell-based or functional assay
[2] = target: T2, human amylin 3(a) receptor (human …); test: cell-based or functional assay

Binder	Ratio hCT/hAmylin funct. [1]	hCTR funct. EC50 [1] [pM]	hAmylin-R funct. EC50 [2] [pM]
K([γGlu-C20 diacid])CNTATCATQRLAEFLRHSSPNFGAIPSSTNVGRETY-NH2 (disulfide 2-7; N-terminus assumed; SMILES CC[C@H](C)[C@H](NC(=O)[C@H](C)NC(=O)CNC(=O)[C@H](Cc1ccccc1)NC(=O)[C@H](CC(N)=O)NC(=O)[C@@H]1CCCN1C(=O)[C@H](CO)NC(=O)[C@H](CO)NC(=O)[C@H](Cc1c[nH]cn1)NC(=O)[C@H](CCCNC(=N)N)NC(=O)[C@H](CC(C)C)NC(=O)[C@H](Cc1ccccc1)NC(=O)[C@H](CCC(=O)O)NC(=O)[C@H](C)NC(=O)[C@H](CC(C)C)NC(=O)[C@H](CCCNC(=N)N)NC(=O)[C@H](CCC(N)=O)NC(=O)[C@@H](NC(=O)[C@H](C)NC(=O)[C@@H]1CSSC[C@H](NC(=O)[C@@H](N)CCCCNC(=O)CC[C@H](NC(=O)CCCCCCCCCCCCCCCCCCC(=O)O)C(=O)O)C(=O)N[C@@H](CC(N)=O)C(=O)N[C@@H]([C@@H](C)O)C(=O)N[C@@H](C)C(=O)N[C@@H]([C@@H](C)O)C(=O)N1)[C@@H](C)O)C(=O)N1CCC[C@H]1C(=O)N[C@@H](CO)C(=O)N[C@@H](CO)C(=O)N[C@H](C(=O)N[C@@H](CC(N)=O)C(=O)N[C@H](C(=O)NCC(=O)N[C@@H](CCCNC(=N)N)C(=O)N[C@@H](CCC(=O)O)C(=O)N[C@H](C(=O)N[C@@H](Cc1ccc(O)cc1)C(N)=O)[C@@H](C)O)C(C)C)[C@@H](C)O)	6.5	2740	421
K([γGlu-C20 diacid])CNTATCATQRLAEFLRHSSPNFGAIPSSTNVGPRTY-NH2 (disulfide 2-7; N-terminus assumed; SMILES CC[C@H](C)[C@H](NC(=O)[C@H](C)NC(=O)CNC(=O)[C@H](Cc1ccccc1)NC(=O)[C@H](CC(N)=O)NC(=O)[C@@H]1CCCN1C(=O)[C@H](CO)NC(=O)[C@H](CO)NC(=O)[C@H](Cc1c[nH]cn1)NC(=O)[C@H](CCCNC(=N)N)NC(=O)[C@H](CC(C)C)NC(=O)[C@H](Cc1ccccc1)NC(=O)[C@H](CCC(=O)O)NC(=O)[C@H](C)NC(=O)[C@H](CC(C)C)NC(=O)[C@H](CCCNC(=N)N)NC(=O)[C@H](CCC(N)=O)NC(=O)[C@@H](NC(=O)[C@H](C)NC(=O)[C@@H]1CSSC[C@H](NC(=O)[C@@H](N)CCCCNC(=O)CC[C@H](NC(=O)CCCCCCCCCCCCCCCCCCC(=O)O)C(=O)O)C(=O)N[C@@H](CC(N)=O)C(=O)N[C@@H]([C@@H](C)O)C(=O)N[C@@H](C)C(=O)N[C@@H]([C@@H](C)O)C(=O)N1)[C@@H](C)O)C(=O)N1CCC[C@H]1C(=O)N[C@@H](CO)C(=O)N[C@@H](CO)C(=O)N[C@H](C(=O)N[C@@H](CC(N)=O)C(=O)N[C@H](C(=O)NCC(=O)N1CCC[C@H]1C(=O)N[C@@H](CCCNC(=N)N)C(=O)N[C@H](C(=O)N[C@@H](Cc1ccc(O)cc1)C(N)=O)[C@@H](C)O)C(C)C)[C@@H](C)O)	17	6380	376
K([γGlu-C20 diacid])CNTATCATQRLAHFLRHSSPNFGAIPSSTNVGRNTY-NH2 (disulfide 2-7; N-terminus assumed; SMILES CC[C@H](C)[C@H](NC(=O)[C@H](C)NC(=O)CNC(=O)[C@H](Cc1ccccc1)NC(=O)[C@H](CC(N)=O)NC(=O)[C@@H]1CCCN1C(=O)[C@H](CO)NC(=O)[C@H](CO)NC(=O)[C@H](Cc1c[nH]cn1)NC(=O)[C@H](CCCNC(=N)N)NC(=O)[C@H](CC(C)C)NC(=O)[C@H](Cc1ccccc1)NC(=O)[C@H](Cc1c[nH]cn1)NC(=O)[C@H](C)NC(=O)[C@H](CC(C)C)NC(=O)[C@H](CCCNC(=N)N)NC(=O)[C@H](CCC(N)=O)NC(=O)[C@@H](NC(=O)[C@H](C)NC(=O)[C@@H]1CSSC[C@H](NC(=O)[C@@H](N)CCCCNC(=O)CC[C@H](NC(=O)CCCCCCCCCCCCCCCCCCC(=O)O)C(=O)O)C(=O)N[C@@H](CC(N)=O)C(=O)N[C@@H]([C@@H](C)O)C(=O)N[C@@H](C)C(=O)N[C@@H]([C@@H](C)O)C(=O)N1)[C@@H](C)O)C(=O)N1CCC[C@H]1C(=O)N[C@@H](CO)C(=O)N[C@@H](CO)C(=O)N[C@H](C(=O)N[C@@H](CC(N)=O)C(=O)N[C@H](C(=O)NCC(=O)N[C@@H](CCCNC(=N)N)C(=O)N[C@@H](CC(N)=O)C(=O)N[C@H](C(=O)N[C@@H](Cc1ccc(O)cc1)C(N)=O)[C@@H](C)O)C(C)C)[C@@H](C)O, also called compound 85)	26.6	3880	146

Results, then the binder that gave them:

Ratio hCT/hAmylin funct. [1]	hCTR funct. EC50 [1] [pM]	hAmylin-R funct. EC50 [2] [pM]	Binder
24.5	3940	161	K([γGlu-C20 diacid])CNTATCATQRLANFLRHSSPNFGAIPSSTNVGRNTY-NH2 (disulfide 2-7; N-terminus assumed; SMILES CC[C@H](C)[C@H](NC(=O)[C@H](C)NC(=O)CNC(=O)[C@H](Cc1ccccc1)NC(=O)[C@H](CC(N)=O)NC(=O)[C@@H]1CCCN1C(=O)[C@H](CO)NC(=O)[C@H](CO)NC(=O)[C@H](Cc1c[nH]cn1)NC(=O)[C@H](CCCNC(=N)N)NC(=O)[C@H](CC(C)C)NC(=O)[C@H](Cc1ccccc1)NC(=O)[C@H](CC(N)=O)NC(=O)[C@H](C)NC(=O)[C@H](CC(C)C)NC(=O)[C@H](CCCNC(=N)N)NC(=O)[C@H](CCC(N)=O)NC(=O)[C@@H](NC(=O)[C@H](C)NC(=O)[C@@H]1CSSC[C@H](NC(=O)[C@@H](N)CCCCNC(=O)CC[C@H](NC(=O)CCCCCCCCCCCCCCCCCCC(=O)O)C(=O)O)C(=O)N[C@@H](CC(N)=O)C(=O)N[C@@H]([C@@H](C)O)C(=O)N[C@@H](C)C(=O)N[C@@H]([C@@H](C)O)C(=O)N1)[C@@H](C)O)C(=O)N1CCC[C@H]1C(=O)N[C@@H](CO)C(=O)N[C@@H](CO)C(=O)N[C@H](C(=O)N[C@@H](CC(N)=O)C(=O)N[C@H](C(=O)NCC(=O)N[C@@H](CCCNC(=N)N)C(=O)N[C@@H](CC(N)=O)C(=O)N[C@H](C(=O)N[C@@H](Cc1ccc(O)cc1)C(N)=O)[C@@H](C)O)C(C)C)[C@@H](C)O, also called compound 79) [N^ε1-[(4S)-4-carboxy-4-(19-carboxynonadecanoylamino)butanoyl]-[Arg17,Pro21,Pro27,Arg34]-h-amylin]
5.2	841	161	K([γGlu-C20 diacid])CNTATCATQRLAEFLRHSSPNFGAIPSSTNVGPETY-NH2 (disulfide 2-7; N-terminus assumed; SMILES CC[C@H](C)[C@H](NC(=O)[C@H](C)NC(=O)CNC(=O)[C@H](Cc1ccccc1)NC(=O)[C@H](CC(N)=O)NC(=O)[C@@H]1CCCN1C(=O)[C@H](CO)NC(=O)[C@H](CO)NC(=O)[C@H](Cc1c[nH]cn1)NC(=O)[C@H](CCCNC(=N)N)NC(=O)[C@H](CC(C)C)NC(=O)[C@H](Cc1ccccc1)NC(=O)[C@H](CCC(=O)O)NC(=O)[C@H](C)NC(=O)[C@H](CC(C)C)NC(=O)[C@H](CCCNC(=N)N)NC(=O)[C@H](CCC(N)=O)NC(=O)[C@@H](NC(=O)[C@H](C)NC(=O)[C@@H]1CSSC[C@H](NC(=O)[C@@H](N)CCCCNC(=O)CC[C@H](NC(=O)CCCCCCCCCCCCCCCCCCC(=O)O)C(=O)O)C(=O)N[C@@H](CC(N)=O)C(=O)N[C@@H]([C@@H](C)O)C(=O)N[C@@H](C)C(=O)N[C@@H]([C@@H](C)O)C(=O)N1)[C@@H](C)O)C(=O)N1CCC[C@H]1C(=O)N[C@@H](CO)C(=O)N[C@@H](CO)C(=O)N[C@H](C(=O)N[C@@H](CC(N)=O)C(=O)N[C@H](C(=O)NCC(=O)N1CCC[C@H]1C(=O)N[C@@H](CCC(=O)O)C(=O)N[C@H](C(=O)N[C@@H](Cc1ccc(O)cc1)C(N)=O)[C@@H](C)O)C(C)C)[C@@H](C)O)
13.3	1730	130	K([γGlu-C20 diacid])CNTATCATQRLAHFLRHSSPNFGAIPSSTNVGHNTY-NH2 (disulfide 2-7; N-terminus assumed; SMILES CC[C@H](C)[C@H](NC(=O)[C@H](C)NC(=O)CNC(=O)[C@H](Cc1ccccc1)NC(=O)[C@H](CC(N)=O)NC(=O)[C@@H]1CCCN1C(=O)[C@H](CO)NC(=O)[C@H](CO)NC(=O)[C@H](Cc1c[nH]cn1)NC(=O)[C@H](CCCNC(=N)N)NC(=O)[C@H](CC(C)C)NC(=O)[C@H](Cc1ccccc1)NC(=O)[C@H](Cc1c[nH]cn1)NC(=O)[C@H](C)NC(=O)[C@H](CC(C)C)NC(=O)[C@H](CCCNC(=N)N)NC(=O)[C@H](CCC(N)=O)NC(=O)[C@@H](NC(=O)[C@H](C)NC(=O)[C@@H]1CSSC[C@H](NC(=O)[C@@H](N)CCCCNC(=O)CC[C@H](NC(=O)CCCCCCCCCCCCCCCCCCC(=O)O)C(=O)O)C(=O)N[C@@H](CC(N)=O)C(=O)N[C@@H]([C@@H](C)O)C(=O)N[C@@H](C)C(=O)N[C@@H]([C@@H](C)O)C(=O)N1)[C@@H](C)O)C(=O)N1CCC[C@H]1C(=O)N[C@@H](CO)C(=O)N[C@@H](CO)C(=O)N[C@H](C(=O)N[C@@H](CC(N)=O)C(=O)N[C@H](C(=O)NCC(=O)N[C@@H](Cc1c[nH]cn1)C(=O)N[C@@H](CC(N)=O)C(=O)N[C@H](C(=O)N[C@@H](Cc1ccc(O)cc1)C(N)=O)[C@@H](C)O)C(C)C)[C@@H](C)O, also called compound 81)
